Assay results published in patent publication US9012420B2, “Aptamer for chymase, and use thereof” (Ribomic Inc., priority 2009, dated 2015).
Oligonucleotides are written 5' to 3', each unit as a sugar letter and its base; * is a phosphorothioate linkage, no mark a phosphodiester; rarer units and linkages stand in square brackets, end groups in braces. Plain capitals give the bases only. r = 2'-OH (RNA); f = 2'-fluoro

Tests used:
chymase = target: T1, chymase (Homo sapiens, UniProt P23946); assay: Surface plasmon resonance (Biacore T100), aptamer immobilized on SA chip, chymase injected as analyte; type: binding; set-up: key: ++: a sequence that binds to chymase significantly more strongly than the negative control 40N; +: a sequence that binds to chymase equivalently compared with the negative control 40N; details: Table 1; about 1000 RU nucleic acid immobilized, chymase 0.2 μM analyte, running buffer solution A; compared with 40N
T1 sequence (P23946 22-247): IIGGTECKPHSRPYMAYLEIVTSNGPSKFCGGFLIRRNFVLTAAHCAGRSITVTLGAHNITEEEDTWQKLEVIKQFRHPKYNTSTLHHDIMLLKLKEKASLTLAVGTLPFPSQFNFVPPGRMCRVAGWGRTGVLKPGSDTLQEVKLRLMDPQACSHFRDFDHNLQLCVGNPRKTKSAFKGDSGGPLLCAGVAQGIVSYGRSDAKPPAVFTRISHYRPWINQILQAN
Method: Binding strength is measured using Biacore T100 (manufactured by GE Healthcare). In a method of measurement, the aptamer is first immobilized onto a sensor chip, the amount immobilized being about 1000 RU. 20 μL of a chymase solution for analyte, prepared at 0.2 μM, is injected, and the binding of chymase to the aptamer is detected. An RNA comprising a random nucleotide sequence of 30 or 40 nucleotides is used as a negative control.
The binding activities against chymase of the nucleic acids shown by SEQ ID NO: 4-20 and 22-34 were determined by the surface plasmon resonance method using Biacore T100 (manufactured by GE Healthcare). The sensor chip used was the SA chip, which had streptavidin immobilized thereon. Bound thereto was about 1500 RU of a 16-nucleotide Poly dT with biotin bound to the 5′ end thereof. […] 20 μL of chymase for analyte, prepared at 0.2 μM, was injected. Solution A was used as a running buffer.
The binding activities against chymase of the nucleic acids shown by SEQ ID NO: 38-48 were evaluated by the surface plasmon resonance method. In the evaluations for SEQ ID NO: 38-48, measurements were taken in the same manner as Example 1. Solution C was used as a running buffer.

[1] = target: T2, chymase (recombinant, manufactured by SIGMA) (Homo sapiens, UniProt P23946); assay: Chymase inhibitory activity using synthetic substrate Suc-Ala-Ala-Pro-Phe-MCA; type: biochemical; details: Table 3; substrate 100 μM, solution C, 37° C.; mean value for 2 to 3 measurements
T2 construct: purchased SIGMA; host or cells: yeast
T2 sequence (P23946 22-247): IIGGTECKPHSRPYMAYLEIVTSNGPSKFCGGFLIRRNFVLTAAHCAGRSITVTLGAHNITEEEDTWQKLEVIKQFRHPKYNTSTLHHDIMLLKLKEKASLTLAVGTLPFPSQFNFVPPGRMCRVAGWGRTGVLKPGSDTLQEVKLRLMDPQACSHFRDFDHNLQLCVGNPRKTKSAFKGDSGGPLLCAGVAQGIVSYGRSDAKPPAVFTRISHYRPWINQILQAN
Method: A first method employs a synthetic substrate. A useful chymase substrate is Suc-Ala-Ala-Pro-Phe-MCA (4-methylcoumaryl-7-amide group) (manufactured by Peptide Institute, Inc.), which contains the 4-amino acid peptide “Ala-Ala-Pro-Phe”, a standard substrate for chymotrypsin-like proteases.
The assay is performed using a 96-well plate (F16 Black Maxisorp Fluoronunc, manufactured by Nunc), with a reaction mixture volume of 100 μL, in a buffer solution (solution C; see Example 2 below). First, each nucleic acid is prepared in solution C to obtain 50 μL solutions. After 10 μL of the 1 mM substrate prepared in solution C is added, the plate is set to the microplate reader SpectraMax190 (manufactured by Molecular Devices Corporation), and incubated at 37° C. for 5 minutes. Separately, 0.05 μg of chymase (recombinant, manufactured by SIGMA) is diluted in solution C, and 40 μL of this dilution is incubated at 37° C. for 5 minutes. The chymase solution is added to the mixture of the nucleic acid and substrate to initiate an enzyme reaction. The plate containing the reaction mixture is set to the microplate reader SpectraMax190 (manufactured by Molecular Devices Corporation), and examined for time-dependent changes in the fluorescence intensity at 37° C. for 5 minutes (excitation wavelength 380 nm, detection wavelength 460 nm). A linear approximation of the increase in the fluorescence of the AMC (7-amino-4-methylcoumarine) released from the substrate by chymase activity is generated, and its slope is taken as the initial reaction velocity. For control, samples are treated and analyzed in the same manner in two cases: use of a nucleic acid pool containing a random sequence of 30 or 40 nucleotides (negative control), and use of chymostatin, a known chymotrypsin-like serine protease inhibitor (positive control). Taking the initial reaction velocity without the nucleic acid and inhibitor as a 100% enzyme activity, the inhibitory rate for each test substance is calculated, and the inhibitor concentration required to cause a 50% inhibition of the enzyme activity (IC50) is determined.
Whether the nucleic acids shown by SEQ ID NO: 4-20, 22-34, and 38-48 inhibit the enzyme activity of chymase was determined as described below. The chymase substrate used was Suc-Ala-Ala-Pro-Phe-MCA (manufactured by Peptide Institute, Inc.), which contains the 4-amino-acid peptide Ala-Ala-Pro-Phe, a standard substrate for chymotrypsin-like proteases. Here, Suc is a protecting succinyl group, and MCA is a 4-methylcoumaryl-7-amide group; upon cleavage of the C-terminal side of phenylalanine, AMC (7-amino-4-methylcoumarine) is released. By detecting the fluorescence of this AMC, the enzyme activity of chymase can be determined. The assay was performed using a 96-well plate (F16 Black Maxisorp Fluoronunc, manufactured by Nunc), with a reaction mixture volume of 100 μL, in solution C as a buffer solution. First, each nucleic acid was serially diluted to 0.0027-2 μM concentrations in solution C to obtain 50 μL solutions. After 10 μL of the 1 mM substrate prepared in solution C was added thereto, the plate was set to the microplate reader SpectraMax190 (manufactured by Molecular Devices Corporation), and incubated at 37° C. for 5 minutes. Separately, 0.05 μg (or 0.005 μg) of chymase (recombinant, manufactured by SIGMA) was diluted in solution C to obtain a 40 μL chymase solution, and incubated at 37° C. for 5 minutes. The chymase solution was added to the mixture of the nucleic acid and substrate to initiate an enzyme reaction. The final chymase concentration in the reaction mixture was 16.7 nM (or 1.67 nM), the final substrate concentration being 100 μM. The plate containing the reaction mixture was set to the microplate reader SpectraMax190 (manufactured by Molecular Devices Corporation), and examined for time-dependent changes in the fluorescence intensity at 37° C. for 5 minutes (or 30 minutes) (excitation wavelength 380 nm, detection wavelength 460 nm). […]

B1: 16 (nucleic acid)
chain: rGrGrGrAfCrGrGfUrArGrGrArAfUfUfCfCfCrAfUrGrAfCfUrGrArArArArAfCrGfUfCrArGfUrArArArAfUfCfCrGrArArArAfUfCrAfUrAfUfCrAfUrArGrArArGrArGfCrGrGfCfCrGfC
modifications: aptamer
B1 was tested, and the “Binding activity as determined using Biacore” value (shortened to “Binding activity as determined”) (chymase) was “++” and the IC50 [1] was greater than 0.5 µM.

B2: 17 (nucleic acid)
chain: rGrGrGrAfCrGrGfUrArGrGrArAfUfUfCfCrGfUfUfCrGfCrArGrArArAfCrGrArAfCfUfUfUfUrArArArArArAfUrGfUrAfCrGfUrGrGrGrArGfCrAfCrAfUrArGrArArGrArGfCrGrGfCfCrGfC
For B2, the “Binding activity as determined” value (chymase) was “++” and the IC50 [1] was 0.092 ± 0.042 µM.

B3: 18 (nucleic acid)
chain: rGrGrGrAfCrGrGfUrArGrGrArAfUfUfCrGrArAfCrGrAfCrArArAfUfUrAfUrArGrArAfCfUfUfCrGfUfUfUrGrAfCrAfUfUfCfCrAfCrAfCfCrAfCrAfUrArGrArArGrArGfCrGrGfCfCrGfC
modifications: aptamer
In the case of B3, the “Binding activity as determined” value (chymase) is reported as “++” and the IC50 [1] is reported as 0.058 ± 0.021 µM.

B4: 19 (nucleic acid)
chain: rGrGrGrAfCrGrGfUrArGrGrArAfUfUfCfCfCrAfCfUrGfCrArAfUfUfCrArGfCrArGrArArArArArAfUfUfCfCrGrArArArArAfCrAfCrAfCrAfCfCrAfUrArGrArArGrArGfCrGrGfCfCrGfC
modifications: aptamer
In the case of B4, the “Binding activity as determined” value (chymase) is reported as “++” and the IC50 [1] is reported as 0.163 ± 0.001 µM.

B5: 20 (nucleic acid)
chain: rGrGrGrAfCrGrGfUrArGrGrArAfUfUfCrArArArAfUfCrArGfCfUrGrAfUfUfUrGfUrArAfUfUfUfUfUfUfUrAfCrAfCrArGrGfCrArArArAfCrAfCrAfUrArGrArArGrArGfCrGrGfCfCrGfC
modifications: aptamer
With B5 the “Binding activity as determined” value (chymase) was “+” and the IC50 [1] was 0.282 ± 0.013 µM.

B6: 22 (nucleic acid)
chain: rGrGrGrAfCrGrGfUrArGrGrArAfUfUfCfCfCrGrAfCrAfCrArArArAfUrGfUrGfUrGrAfUfUrArAfUfUfCfCrGrArAfCrArAfCrArArArGfUrArAfCrAfUrArGrArArGrArGfCrGrGfCfCrGfC
modifications: aptamer
B6 was tested, and the “Binding activity as determined” value (chymase) was “+” and the IC50 [1] was 0.105 ± 0.009 µM.

B7: 23 (nucleic acid)
chain: rGrGrGrAfCrGrGfUrArGrGrArAfUfUfCrAfUrAfUrGfUrAfCfUfCfCrGfUfCfCfUrGrAfCrArArArAfUrGfUfCrArAfUrGrAfCrArArAfCrGfUfUfCrAfUrArGrArArGrArGfCrGrGfCfCrGfC
modifications: aptamer
With B7 the “Binding activity as determined” value (chymase) was “++” and the IC50 [1] was 0.238 ± 0.06 µM.

B8: 24 (nucleic acid)
chain: rGrGrGrAfCrGrGfUrArGrGrArAfUfUfCfCfCfUfUfCrAfUrArGfUrArGrArAfUrGfUfUrGrGfUfUfUfCfUrAfCrArArArArGfCrGrAfCrArArGfCrAfUrArGrArArGrArGfCrGrGfCfCrGfC
modifications: aptamer
With B8 the “Binding activity as determined” value (chymase) was “++” and the IC50 [1] was 0.092 ± 0.003 µM.

B9: 25 (nucleic acid)
chain: rGrGrGrAfCrGrGfUrArGrGrArAfUfUfCrArGfCfUrGrAfCfUfCfCrArAfUrGfCrAfCrAfCrGfUrArGrAfUrArGrArGfUfUrArArArAfCrGfUfUrGfCrAfUrArGrArArGrArGfCrGrGfCfCrGfC
modifications: aptamer
For B9, the “Binding activity as determined” value (chymase) was “++” and the IC50 [1] was 0.079 ± 0.028 µM.

B10: 26 (nucleic acid)
chain: rGrGrGrAfCrGrGfUrArGrGrArAfUfUfCrGfUfCrGrAfUfUfCfUrAfCrArGrAfUrArGrArGrAfUrArArArGfUrArGrArAfUfUfUrArAfCrArArArAfCrAfUrArGrArArGrArGfCrGrGfCfCrGfC
modifications: aptamer
B10 was tested, and the “Binding activity as determined” value (chymase) was “++” and the IC50 [1] was 0.106 ± 0.004 µM.

B11: 27 (nucleic acid)
chain: rGrGrGrAfCrGrGfUrArGrGrArAfUfUfCfCrGfUfCrAfUfCrGrGfUfUrGfCrArArAfUfUrGrArArArAfUrAfCrArArArAfCrArArGrGrAfCrArAfCfCrAfUrArGrArArGrArGfCrGrGfCfCrGfC
modifications: aptamer
With B11 the “Binding activity as determined” value (chymase) was “++” and the IC50 [1] was greater than 0.5 µM.

B12: 28 (nucleic acid)
chain: rGrGrGrAfCrGrGfUrArGrGrArAfUfUfCrArAfUfUfUfCfUfUfUfCfUrAfUfUfCfUfCrAfCfCfUrGrArGfUrAfUrAfUfCrArGrGfCrAfCrArGfUrAfCrAfUrArGrArArGrArGfCrGrGfCfCrGfC
modifications: aptamer
For B12, the “Binding activity as determined” value (chymase) was “+” and the IC50 [1] was 0.045 ± 0.004 µM.

B13: 29 (nucleic acid)
chain: rGrGrGrAfCrGrGfUrArGrGrArAfUfUfCrAfCrGrAfCfCrGfCfCfCrArArArArArAfUrGrGfUrGrAfCrAfUfUfUfUrArGrArArAfCrAfCfCrGrArAfCrAfUrArGrArArGrArGfCrGrGfCfCrGfC
modifications: aptamer
B13 was tested, and the “Binding activity as determined” value (chymase) was “++” and the IC50 [1] was greater than 0.5 µM.

B14: 30 (nucleic acid)
chain: rGrGrGrAfCrGrGfUrArGrGrArAfUfUfCrGfUfCfCfCfUfCfUfUrGfUfCfUrAfUfUfUfUrGfCrArGrAfUrArGrAfCfUfUrArArArGfCrArArAfCrAfUrArGrArArGrArGfCrGrGfCfCrGfC
In the case of B14, the “Binding activity as determined” value (chymase) is reported as “++” and the IC50 [1] is reported as 0.147 ± 0.044 µM.

B15: 31 (nucleic acid)
chain: rGrGrGrAfCrGrGfUrArGrGrArAfUfUfCrGfUfCfCfCfUfCrAfUrGfUfCfUrAfUfUfUfUrGfCrArGrAfUrArGrAfCfUfUrArArArGfCrArArAfCrAfUrArGrArArGrArGfCrGrGfCfCrGfC
With B15 the “Binding activity as determined” value (chymase) was “+” and the IC50 [1] was 0.155 ± 0.039 µM.
